From patent US20120321614A1 (Amgen, published 2012)

Key:
[1] = target: T1, c-Met expressed on the surface of human A549 lung carcinoma cells (human, UniProt P08581 25-1390); assay: cell-based or functional assay
[2] = target: T2, c-Met ECD/Fc (R&D Systems #358 MT), human (human, UniProt P08581 25-932); assay: ELISA, inhibition of HGF binding to plate-coated c-Met ECD/Fc
T2 construct: extracellular domain; Bought fusion protein; also called c-Met ECD-Fc (human); human Met ECD-Fc; not shown: Fc part of the bought fusion protein
T2 sequence (P08581 25-932): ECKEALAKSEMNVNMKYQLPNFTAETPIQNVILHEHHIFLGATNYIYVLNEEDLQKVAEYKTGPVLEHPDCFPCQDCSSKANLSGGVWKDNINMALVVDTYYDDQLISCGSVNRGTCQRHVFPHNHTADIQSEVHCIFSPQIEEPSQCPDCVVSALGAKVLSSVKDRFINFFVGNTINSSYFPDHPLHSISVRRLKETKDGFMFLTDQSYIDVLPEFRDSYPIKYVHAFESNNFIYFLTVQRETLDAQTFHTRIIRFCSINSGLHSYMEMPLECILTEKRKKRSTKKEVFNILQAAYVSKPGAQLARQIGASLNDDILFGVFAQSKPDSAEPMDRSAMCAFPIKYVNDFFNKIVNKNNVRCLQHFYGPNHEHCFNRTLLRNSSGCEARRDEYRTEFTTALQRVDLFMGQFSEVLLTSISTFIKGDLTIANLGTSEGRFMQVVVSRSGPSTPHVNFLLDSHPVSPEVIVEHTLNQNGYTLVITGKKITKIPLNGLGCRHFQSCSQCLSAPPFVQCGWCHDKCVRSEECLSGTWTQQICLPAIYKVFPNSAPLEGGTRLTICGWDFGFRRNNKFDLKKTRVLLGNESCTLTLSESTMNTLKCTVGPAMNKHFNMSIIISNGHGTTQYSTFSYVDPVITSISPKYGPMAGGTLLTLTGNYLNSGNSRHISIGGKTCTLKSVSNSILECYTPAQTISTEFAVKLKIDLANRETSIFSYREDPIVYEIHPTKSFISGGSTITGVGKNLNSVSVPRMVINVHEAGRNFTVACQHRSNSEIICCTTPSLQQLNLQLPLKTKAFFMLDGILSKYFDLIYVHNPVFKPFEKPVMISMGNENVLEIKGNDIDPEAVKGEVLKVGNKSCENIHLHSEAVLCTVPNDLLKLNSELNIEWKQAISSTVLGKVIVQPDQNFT

[3] = target: T2, c-Met ECD/Fc (R&D Systems #358 MT), …; assay: SPR (BIACORE 3000), human c-Met ECD-Fc immobilized, antibody injected
Experimental: (§1) Experiments were performed in a BIACORE™ 3000 instrument at 25° C. in Dulbecco's phosphate buffered saline containing 0.0005% Tween-20. Protein concentrations were obtained from sedimentation velocity experiments or by measuring the wavelength of the sample at 280 nm using theoretical extinction coefficients derived from amino acid sequences. For experiments measuring the binding of antibody to immobilized antigens, 220 RU (resonance units) of c-Met ECD-Fc (human or cynomologus) was immobilized on a B1 chip (BIACORE™) by standard direct amine coupling procedures. […] For each concentration, samples were injected in duplicate at 5 μl/min flow for 4 min. The dissociation was monitored for 2000 seconds. The data were fit globally to a simple 1:1 binding model using BIACORE™ Biavel software. In addition, to determine the koff independent of any potential error in the active concentration or fitting model, the dissociation data were fit globally and independently from association data to a simple dissociation model.

[4] = target: T1, c-Met expressed on the surface of human …; assay: flow cytometry on human A549 cells, half-maximal binding at equilibrium
Experimental: (§2) The binding affinity of purified antibodies for c-Met expressed on the surface of human A549 lung carcinoma cells and cynomolgus kidney cells was determined by flow cytometry using the BD™ Biosciences LSR flow cytometer according to manufacturer's protocols.
(§3) Cells grown in culture were washed with PBS, briefly incubated in the presence of 0.25% trypsin-EDTA (Invitrogen) and collected. The collected cells were washed in PBS wash buffer containing 0.025% sodium azide and 2% heat inactivated serum, pelleted and 5×10⁵ cells and resuspended in 500 μl of the same buffer. The time required to achieve equilibrium binding at room temperature for each antibody was determined independently to be between six and eight hours by incubating subsaturating concentrations of each antibody with cells. […] Each antibody was incubated with detached cells for 6 to 8 hours at room temperature depending on the time required to reach equilibrium. Cells were washed, resuspended and incubated in 500 μl of a 1:500 dilution of biotinylated mouse anti-human IgG (Jackson Labs) in PBS wash buffer for 45 minutes on ice. Next, cells were washed, resuspended and incubated with 10 μg/ml streptavidin R-phycoerythrin conjugate (Caltag) in 200 μl PBS wash buffer for 15 min on ice protected from light. Cells were washed and signal was detected with a BD Biosciences LSR flow cytometer according to manufacturer's protocols.

[5] = target: T3, c-Met ECD-Fc (cynomologus) (cynomologus, UniProt A0A2K5UM36 25-932); assay: SPR (BIACORE 3000), cynomologus c-Met ECD-Fc immobilized, antibody injected
T3 construct: also called cynomologus c-Met ECD-Fc
T3 sequence (A0A2K5UM36 entry or part of it limits assumed): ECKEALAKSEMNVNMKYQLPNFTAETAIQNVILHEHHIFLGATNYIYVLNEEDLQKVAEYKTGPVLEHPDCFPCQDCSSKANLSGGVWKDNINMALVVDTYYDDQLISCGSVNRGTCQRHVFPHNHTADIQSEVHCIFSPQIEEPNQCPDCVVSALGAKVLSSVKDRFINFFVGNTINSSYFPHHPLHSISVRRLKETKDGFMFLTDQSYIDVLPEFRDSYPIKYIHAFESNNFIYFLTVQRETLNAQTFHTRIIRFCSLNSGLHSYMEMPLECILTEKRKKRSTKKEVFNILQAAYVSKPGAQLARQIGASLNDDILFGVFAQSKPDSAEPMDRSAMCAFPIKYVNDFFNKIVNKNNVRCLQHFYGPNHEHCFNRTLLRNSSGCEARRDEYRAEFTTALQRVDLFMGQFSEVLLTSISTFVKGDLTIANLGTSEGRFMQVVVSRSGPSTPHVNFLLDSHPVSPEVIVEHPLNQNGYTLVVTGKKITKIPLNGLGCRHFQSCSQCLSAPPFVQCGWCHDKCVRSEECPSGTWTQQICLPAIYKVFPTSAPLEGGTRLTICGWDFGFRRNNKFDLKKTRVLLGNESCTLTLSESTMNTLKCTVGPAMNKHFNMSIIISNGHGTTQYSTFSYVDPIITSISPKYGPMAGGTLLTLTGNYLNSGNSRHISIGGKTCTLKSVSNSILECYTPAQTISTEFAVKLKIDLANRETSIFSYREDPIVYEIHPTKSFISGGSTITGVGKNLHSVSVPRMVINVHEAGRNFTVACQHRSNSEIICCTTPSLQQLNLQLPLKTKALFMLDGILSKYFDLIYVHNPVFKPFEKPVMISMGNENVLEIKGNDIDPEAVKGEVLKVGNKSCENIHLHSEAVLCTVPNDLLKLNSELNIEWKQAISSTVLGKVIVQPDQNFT
Experimental: as §1

[6] = target: T4, c-Met expressed on the surface of cynomolgus kidney cells (cynomolgus, UniProt A0A2K5UM36 25-1381); assay: flow cytometry on cynomolgus kidney cells, half-maximal binding at equilibrium
T4 construct: also called cynomologus c-Met expressed on the cell surface
T4 sequence (A0A2K5UM36 entry or part of it limits assumed): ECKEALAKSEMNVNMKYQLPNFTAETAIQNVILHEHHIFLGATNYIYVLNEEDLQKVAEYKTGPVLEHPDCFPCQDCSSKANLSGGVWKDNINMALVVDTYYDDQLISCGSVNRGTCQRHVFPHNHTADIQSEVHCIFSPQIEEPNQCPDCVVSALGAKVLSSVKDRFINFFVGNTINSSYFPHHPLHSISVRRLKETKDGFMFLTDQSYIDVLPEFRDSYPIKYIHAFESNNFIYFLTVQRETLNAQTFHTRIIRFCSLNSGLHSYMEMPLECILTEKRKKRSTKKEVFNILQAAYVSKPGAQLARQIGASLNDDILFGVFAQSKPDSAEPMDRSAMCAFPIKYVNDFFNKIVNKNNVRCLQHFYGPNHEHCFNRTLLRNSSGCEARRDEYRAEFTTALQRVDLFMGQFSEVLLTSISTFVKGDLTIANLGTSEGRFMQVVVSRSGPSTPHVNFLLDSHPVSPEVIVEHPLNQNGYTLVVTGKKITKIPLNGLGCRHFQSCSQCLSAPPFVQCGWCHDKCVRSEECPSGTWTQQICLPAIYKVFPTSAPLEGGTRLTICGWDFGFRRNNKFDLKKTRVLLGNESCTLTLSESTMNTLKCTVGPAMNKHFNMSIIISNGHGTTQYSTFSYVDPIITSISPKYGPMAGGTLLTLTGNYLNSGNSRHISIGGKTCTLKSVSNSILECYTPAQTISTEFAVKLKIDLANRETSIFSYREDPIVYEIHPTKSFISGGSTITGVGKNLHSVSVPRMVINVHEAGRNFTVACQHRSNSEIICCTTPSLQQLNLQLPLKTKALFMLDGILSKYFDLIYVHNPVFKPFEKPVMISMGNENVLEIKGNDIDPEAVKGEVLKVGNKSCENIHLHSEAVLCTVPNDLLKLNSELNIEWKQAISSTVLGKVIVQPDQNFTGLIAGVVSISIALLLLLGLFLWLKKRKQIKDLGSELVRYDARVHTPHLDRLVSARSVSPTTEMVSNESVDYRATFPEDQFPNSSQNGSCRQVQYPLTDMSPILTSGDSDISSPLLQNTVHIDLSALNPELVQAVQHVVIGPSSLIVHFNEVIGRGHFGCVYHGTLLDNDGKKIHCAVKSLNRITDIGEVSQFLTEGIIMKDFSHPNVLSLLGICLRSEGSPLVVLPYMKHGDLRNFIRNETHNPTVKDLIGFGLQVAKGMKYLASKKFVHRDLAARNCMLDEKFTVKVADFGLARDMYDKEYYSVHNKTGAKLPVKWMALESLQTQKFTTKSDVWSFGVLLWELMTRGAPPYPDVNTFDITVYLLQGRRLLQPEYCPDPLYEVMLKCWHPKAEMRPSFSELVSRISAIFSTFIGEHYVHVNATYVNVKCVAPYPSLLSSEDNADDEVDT
Experimental: as §2, §3

[7] = target: T2, c-Met ECD/Fc (R&D Systems #358 MT), …; assay: SPR (BIACORE 3000), human c-Met ECD-Fc immobilized, antibody injected, 1:1 model
Experimental: as §1

[8] = target: T3, c-Met ECD-Fc (cynomologus); assay: SPR (BIACORE 3000), cynomologus c-Met ECD-Fc immobilized, antibody injected, 1:1 model
Experimental: as §1

[9] = target: T5, Insulin-like Growth Factor 1 Receptor (IGF-1R) (UniProt P08069 31-1367, limits assumed); assay: IGF-1R Cell ELISA: IGF-1R tyrosine phosphorylation after IGF-1, % of control. Indirect readout; the legend says that the antibody does not bind IGF-1R
T5 construct: also called IGF-IR

[10] = target: T2, c-Met ECD/Fc (R&D Systems #358 MT), …; assay: Ligand Binding ELISA (competition): plate coated with c-Met ECD/Fc, antibody concentration varied, then HGF added and bound HGF detected; readout is % inhibition of HGF binding
Experimental: The wells were washed four times with Tris-buffered saline (pH=8.0) with 0.05% TWEEN-20 (TBS-T). Next, 200 μl/well of blocking buffer (3% bovine serum albumin (BSA) in TBS-T) was added for 60 minutes (min) at room temperature to block non-specific binding sites. The wells were washed 4 times with 300 μl/well TBS-T. Next, 100 μl of Dulbecco's Modified Eagle medium (DMEM) supplemented with 10% FBS containing anti-c-Met antibodies from hybridoma supernatants or purified antibodies in either PBS or 20 mM sodium acetate (pH=5.5), 140 mM NaCl at various concentrations (e.g., 10, 3, 1, 0.3, 0.1, 0.03, and 0.01 μg/ml, based on human IgG2 concentrations in the supernatants) was added to each well. Anti-c-Met antibody was not added to the control wells of the experiment. The samples were mixed for 4 hours (hrs) at room temperature. […] The samples were mixed for 15 minutes at room temperature. […] The solutions were incubated in the wells for 30 min at room temperature. […] The samples were incubated for 30 min at room temperature. The wells were washed 5 times with TBS-T, about 300 μl/well/wash. Next, 100 μl/well of 3,3′,5,5′-tetramethylbenzidine (TMB) peroxidase substrate (Kirkegaard & Perry Laboratories) was added and developed for 1-2 min at room temperature. […] The samples were read at a wavelength of 450 nanometers (nm) on a 96-well plate reader and no background was subtracted.

T1 sequence (P08581 25-1390): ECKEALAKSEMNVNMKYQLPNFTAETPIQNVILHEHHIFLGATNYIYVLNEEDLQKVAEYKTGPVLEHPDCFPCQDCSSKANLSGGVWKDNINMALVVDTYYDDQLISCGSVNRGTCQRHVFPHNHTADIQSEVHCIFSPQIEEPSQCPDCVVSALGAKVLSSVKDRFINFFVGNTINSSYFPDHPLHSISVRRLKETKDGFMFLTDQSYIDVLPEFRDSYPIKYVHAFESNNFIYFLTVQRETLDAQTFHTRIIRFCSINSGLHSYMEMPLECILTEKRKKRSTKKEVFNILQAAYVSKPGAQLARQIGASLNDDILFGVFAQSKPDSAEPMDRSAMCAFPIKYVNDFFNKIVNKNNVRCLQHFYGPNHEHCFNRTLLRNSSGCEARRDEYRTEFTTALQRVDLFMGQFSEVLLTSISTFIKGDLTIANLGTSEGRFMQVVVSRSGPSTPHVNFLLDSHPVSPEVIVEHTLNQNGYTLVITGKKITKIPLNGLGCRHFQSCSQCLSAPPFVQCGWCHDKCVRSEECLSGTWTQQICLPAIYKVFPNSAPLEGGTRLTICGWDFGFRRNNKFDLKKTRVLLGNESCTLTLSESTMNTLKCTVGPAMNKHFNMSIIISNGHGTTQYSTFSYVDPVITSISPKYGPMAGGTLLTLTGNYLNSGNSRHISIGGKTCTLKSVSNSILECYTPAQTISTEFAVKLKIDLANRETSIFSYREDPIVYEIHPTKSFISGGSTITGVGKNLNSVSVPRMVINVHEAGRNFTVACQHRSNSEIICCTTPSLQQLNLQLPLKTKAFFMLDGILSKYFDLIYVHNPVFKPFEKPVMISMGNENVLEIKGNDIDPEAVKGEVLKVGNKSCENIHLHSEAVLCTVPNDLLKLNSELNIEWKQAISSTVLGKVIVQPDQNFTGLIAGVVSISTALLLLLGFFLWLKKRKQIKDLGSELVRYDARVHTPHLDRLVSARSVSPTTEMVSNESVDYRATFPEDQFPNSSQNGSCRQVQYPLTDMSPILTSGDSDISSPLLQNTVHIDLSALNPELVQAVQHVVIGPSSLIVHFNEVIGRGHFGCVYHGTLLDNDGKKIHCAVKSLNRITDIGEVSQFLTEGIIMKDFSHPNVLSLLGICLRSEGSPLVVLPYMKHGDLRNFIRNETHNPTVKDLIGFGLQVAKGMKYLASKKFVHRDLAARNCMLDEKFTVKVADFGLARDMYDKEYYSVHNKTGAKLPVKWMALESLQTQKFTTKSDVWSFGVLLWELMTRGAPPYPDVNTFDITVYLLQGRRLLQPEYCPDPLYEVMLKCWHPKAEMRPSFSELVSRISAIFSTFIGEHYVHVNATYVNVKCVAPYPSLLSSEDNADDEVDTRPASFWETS

Agonist Activity [maximum fold stimulation] [1]	Cellular Met Levels [% loss at 1.0 µg/ml] [1] [% loss at 1.0 µg/ml]	Cellular pTyr Assay [IC50, µg/ml] [1] [µg/ml]	Soft Agar Growth [IC50, µg/ml] [1] [µg/mL]	Tubular Morphogenesis Agonism [fold stimulation at 50 µg/ml] [1]	Tubular Morphogenesis Antagonism [% inhibition at 1 µg/ml] [1] [% inhibition at 1 µg/ml]	IC50 [2] [µg/mL]	koff [3] [s⁻¹]	Kd [4] [nM]	koff [5] [s⁻¹]	Kd [6] [nM]	Kd [7] [nM]	Kd [8] [nM]	binding result [9]	IC50 (read off the curve) [10] [µg/mL]	Binder
6.5 fold stimulation (maximum)	46.9	0.033	5.5	2.2 fold stimulation at 50 µg/ml	84	0.093	6.8e-05	0.169	9.8e-05	0.168	0.82	1.1	no binding (tested: 1000 µg/ml)		anti-c-Met monoclonal antibody 9.1.2 (antibody, V domains shown, Human IgG2 kappa; also called hybridoma 9.1.2 (LN 15884); PTA-5027) VH: QVQLQESGPGLVKPSQTLSLTCTVSGGSISSGGYYWSWIRQHPGKGLEWIGYIYYSGSTYYNPSLKSRVTISVDTSKNQFSLKLSSVTAADTAVYYCARDGPLGYCSSTSCPVTGEYYYYGMDVWGQGTTVTVSS VL: EIVLTQSPGTLSLSPGERATLSCRASQSVSNNYLAWYQQKPGQAPRLLIFGASSRATGIPDRFSGSGSGTDFTLTISRLEPEDFAVYYCQQYDISPMYSFGQGTKLEMKR
2.5 fold stimulation (maximum)	11	0.143	25	8.2 fold stimulation at 50 µg/ml	25	0.115	6.1e-05	0.0407	6.5e-05	0.0553	0.33	0.32			anti-c-Met monoclonal antibody 8.70.2 (antibody, V domains shown, Human IgG2 kappa; also called hybridoma 8.70.2 (LN 15885); PTA-5028) VH: QLQLQESGPGLVKPSETLSLTCTVSGGSISSSSYYGGWIRQPPGKGLDWIGSIYYSGNTYYNPSLKSRVTISVDTSKNQFSLKLSSVTAADTAVYYCARHSWDYFDYWDQGTLVTVSS VL: DIQMTQSPSSVSASVGDRVTITCRASQGISSWLAWYQQKPGKAPKLLIYAASSLQSGVPSRFSGSGSGTDFTLTISSLQSEDFATYYCQQANSFPITFGPGTKVEIKR
2.7 fold stimulation (maximum)		0.033	8.5			0.09	0.00015	0.0393	0.00029	0.0486	0.22	0.6	no binding (tested: 1000 µg/ml)	~0.03	anti-c-Met monoclonal antibody 13.3.2 (antibody, human IgG2, kappa, V domains shown, Human IgG2 kappa from XenoMouse hybridoma; The variable positions X2, X4, X6, X8 correspond to positions 42, 97, 14 (heavy) and 91 (light), where position one is the N-terminal amino acid; these numbers may not count on the entry with its leader; also called PTA-5026) VH: QVQLVQSGAEVKKPGASVKVSCEASGYTFTSYGFSWVRQAPGQGLEWMGWISASNGNTYYAQKLQGRVTMTTDTSTSSAYMELRSLRSDDTAVYYCARVYADYADYWGQGTLVTVSS VL: DIQMTQSPSSVSASVGDRVTITCRASQGINTWLAWYQQKPGKAPKLLIYAASSLKSGVPSRFSGSGSGADFTLTISSLQPEDFATYYCQQANSFPLTFGGGTKVEIKR
2.3 fold stimulation (maximum)	17.5	0.086	10.5	2.5 fold stimulation at 50 µg/ml	61	0.11	0.00015	0.026	0.00025	0.393	0.53	1.22			anti-c-Met monoclonal antibody 8.90.3 (antibody, V domains shown, Human IgG2 kappa) VH: EVQLVESGGGLVQPGGSLRLSCAASGFTFSRYSMNWVRQAPGKGLEWVSYISSRSSTIYYADSVKGRFTMSRDNAKNSLYMQMNSLRDEDTAVYYCGYGDYDYFDYWGQGTLVTVSS VL: DIQMTQSPSSVSASVGDRVIITCRASQGISSWLAWYQQKPGKAPKLLIYAASSLKSGVPSRFSGSGSGTDFTVTISSLQPEDFATYYCQQSNSLPWTFGQGTKVEIKR
2.5 fold stimulation (maximum)	28.5	0.032				0.127	0.00018	0.056	0.0004	0.0733	0.2	0.61		~0.05	anti-c-Met monoclonal antibody 13.3.2L-A91T, H-E42K, S97T (antibody, human IgG2, kappa, V domains shown, positions 42, 97, 14 and 91 count from the N-terminal amino acid and may not count on the entry with its leader) VH: QVQLVQSGAEVKKPGASVKVSCKASGYTFTSYGFSWVRQAPGQGLEWMGWISASNGNTYYAQKLQGRVTMTTDTSTSTAYMELRSLRSDDTAVYYCARVYADYADYWGQGTLVTVSS VL: DIQMTQSPSSVSASVGDRVTITCRASQGINTWLAWYQQKPGKAPKLLIYAASSLKSGVPSRFSGSGSGTDFTLTISSLQPEDFATYYCQQANSFPLTFGGGTKVEIKR
